Experimental data from the DeepSol protein solubility set.

experiment: soluble on expression in E. coli; label from the status in PepcDB or PDB records

Sequence | soluble on expression in E. coli
LQVYTSDNQLIAEYGGKLSVPVEYNQIPPTFIHAFLAAEDSSFFEHSGISFKGLGRALSETVTGSNVQTGGSTITMQVAKNYYLSPERTLKRKLTEIFLARKIEQNLTKQEILSLYVNKIFLGKNAYGIAAAAKIYYNKTLDQLSIAEMAMISGLPKAPSKYNPVVNP | not soluble
MEASDLTFTVSVDQTTKHVFDAICNVRGWWSEEIEGNTDKRNETFIYQYEDVHYAKIKVQELIPNEKVVWLVTYNYFKFTKDKSEWTGTTIRFDISAKGDKTEIRFTHYGLNPEFECYDICSNAWGQYIGQSLPDLIKSGKGNPNGKNKPTTADEERFSAKNLEHHHHHH | soluble
SSSGLNSEKVAALIQKLNSDPQFVLAQNVGTTHDLLDICLKRATVQRAQHVFQHAVPQEGKPITNQKSSGRCWIFSCLNVMRLPFMKKLNIEEFEFSQSYLFFWDKVERCYFFLSAFVDTAQRKEPEDGRLVQFLLMNPANDGGQWDMLVNIVEKYGVIPKKCFPESYTTEATRRMNDILNHKMREFCIRLRNLVHSGATKGEISATQDVMMEEIFRVVCICLGNPPETFTWEYRDKDKNYQKIGPITPLEFYREHVKPLFNMEDKICLVNDPRPQHKHNKLYTVEYLSNMVGGRKTLYNNQPIDFLKKMVAASIKDGEAVWFGCDVGKHFNSKLGLSDMNLYDHELVFGVSLKNMNKAERLTFGESLMTHAMTFTAVSEKDDQDGAFTKWRVENSWGEDHGHKGYLCMTDEWFSEYVYEVVVDRKHVPEEVLAVLEQEPIILPAWDPMGALA | soluble
MEALAMAGVDYQEWGLSIEEWELQESVVPLHLLADDFKEEEQEEDHQDNDDDDRVLDGLAVKQSVTRDIRASVGKFIEQSMSHMIVHLKQLKFLTLLLENFLFTHVLDFLL | not soluble
MSQDNLSAVLYGVDDLRLEQVPIPKPGPNQVLVKVHTVGICGSDVHYWTHGAIGPFVVKEPMIVGHETSGIVSEVGNEVKHLKVGDRIAMEPGLPCKLCEHCKTGRYNLCPEMRFFATPPVHGTLSRFVVHDADFCFKLPDNLSFEDGALIEPLSVAIHACRRGNVQMGHRVLVLGAGPIGVLNLITAKAVGAGKVVITDLDDGRLALAKKLGADATINVKGKSLDAVKSEIITALGDQQPDVCIECTGAQPSIETAITTTKSGGVIVLVGLGADRVEIPIIESATREVDMRGIFRYVNCYPTAIELISSGKLNLSGLTRAHYKLEETQEAFKRTQKADVIKVFIQC | not soluble
MVSNPVHGLPFLPGTSFKDSTKTAFHRSQTLSYRNGYAIVRRPTVGIGGDRLQFNQLSQAELDELASKAPVLTYGQPKQAPPADFIPAHVAFDKKVLKFDAYFQEDVPMSTEEQYRIRQVNIYYYLEDDSMSVIEPVVENSGILQGKLIKRQRLAKNDRGDHYHWKDLNRGINITIYGKTFRVVDCDQFTQVFLESQGIELNPPEKMALDPYTELRKQPLRKYVTPSDFDQLKQFLTFDKQVLRFYAIWDDTDSMYGECRTYIIHYYLMDDTVEIREVHERNDGIDPFPLLMNRQRVPKVLVENAKNFPQCVLEISDQEVLEWYTAKDFIVGKSLTILGRTFFIYDCDPFTRRYYKEKFGITDLPRIDVSKREPPPVKQELPPYNGFGLVEDSAQNCFALIPKAPKKDVIKMLVNDNKVLRYLAVLESPIPEDKDRRFVFSYFLATDMISIFEPPVRNSGIIGGKYLGRTKVVKPYSTVDNPVYYGPSDFFIGAVIEVFGHRFIILDTDEYVLKYMESNAAQYSPEALASIQNHVRKREAPAPEAESKQTEKDPGVQELEALIDTIQKQLKDHSCKDNIREAFQIYDKEASGYVDRDMFFKICESLNVPVDDSLVKELLRMCSHGEGKINYYNFVRAFSN | soluble
MGSDKIHHHHHHMITAEECRTYKEFVDLYQSYLYPLLGARLSRMYSPKNKVIIDMGTGPGYLSIQLAKRTNAHVHAVDINPAMHEIAQEEAKKSGVSSLISFDLEDVHHLSYADQYADFIVSYSCLHHWEDVVKGLKECYRVLAPGGKIVILDTFNPQGSHLEIMRKQIKEPEYFRFVREAFEESYSFEDIHQFVQDAGIPNYSLETFHFLPEDFIESLDELEDAPLWEQNDQSTDHEIESVTWMLTIEKEKEGAL | not soluble
MKMELKEGGKIFFRWFRKTFGEEVTDEGIIHRLEPPNLIEFSWNTYEDGFRSRVKMEFFPSSYNGTWVQVEDHTIVLNEEDMKIKLECAVGWGEMLTLAKIWIEYGISTLENP | not soluble
MGSDKIHHHHHHMTEATYNFAYLDEQTKRMIRRAILKGIAIPGYQVPFASREMPMPYGWGTGGVQVTASILGPDDTLKVIDQGSDDTTNAISIRKFFAKTAGVATTTATPDASVIQTRHRIPETPLHEGQVLVYQVPIPEPLRYLEPRETETRRMHALAEYGLMHVKLYEDIAKFGHIATAYAYPVKVAGRYVMDPSPTPKFDNPKMDNCPALQLFGAGREKRIYAIPPYTQVVSLDFEDHPFTRYRQDGCCALCGADDSYLDEIVTDNAGTRMFVCSDTDYCEGRRAQGHTGSETAPMESAHA | not soluble
SDRFTSQSSFVVRSPKSQSSLNGLGAILQGTGFARAQDDIYTVGEYMRSRSSLDELRKILPVREFYETKGDAFSRFNGFGFRGEEEAFYQYYKNQ | not soluble
MTETTENVVITIPDKTSFTFHEAATSPSEGEEFVVGHFRELTVKISGSSTSREIKFYAVDENGEKTALSGTNKTDFQLGSSTLNTNEYWDFDIAGLFKVMFEVVSVTGDVTVKGIVVSLEHHHHHH | soluble
HMAQVFEECVSFINGLPRTINLPNELKLDLYKYYKQSTIGNCNIKEPSAHKYIDRKKYEAWKSVENLNREDAQKRYVDIVSEIFPYWQD | soluble
MGSDKIHHHHHHMYNEGVTSPSQLARKKNATDKWHGSSIRKILENPHYTGTLQQCREYRPSVTSKRRRSVNLENQIIIEKSHEPIIPLEDFLIVQEILITRKRRRPQAEVHLFTNTAVCKDCRRSMHFKKNRKGYVCGSYNKHGLKACSDHYVSEIDLTDKVITNLNKIYLKFSKENYFKELSEKALKYKEKIESKIIEINEKLNDKKRDKSNLVISLANGVISKEDYQLAINITNEDISNFETTLHQLSKDLEFQKIEKEIIDFKKSLDKFMKEGTLTPEMLHLLVDEIEVHANGTIEINYRFREPTVPSA | not soluble
MDRLIRSLLMNQNKQATDKLDHPDTSETVNISSLALLKMLRHARSGIPLEVMGLMLGDFVDDYTINVTDVFAMPQSGTSVTVESVDPVYQTKHMDLLKLVGRTENVVGWYHSHPGFGCWLSSVDVNTQQSFEALHPRAVAVVVDPIQSVKGKVMLDAFRSVNPLNLQIRPLAPTAEPRQTTSNLGHLTKPSLISVVHGLGTKYYSLNVAYRMGSNEQKMLMCLNKKSWYDQLNMSTYSELEKKQEEKFKSINKLIAVFNKDIDEVKEKPIADKKGKTQEEVKKFGKINAKQQLQMITSSLLNDSLCHQLTAMINAKSMT | not soluble
MGSDKIHHHHHHMAYVPNPVNIGVVYTENAAVLVDSGLDESVPRKISRLLQKPPLYLINTHSHADHCGGNAFLKKRFSTRVFAPKMEKEIIENTVFEPFYLYGAYPPNELRNKFLMAEPSAVDEVIEEGTITIESVDLEIVPLSGHSTNQIGVAVDGVLFCADAVFSEETLRKHRIFVIYNVEKFLETLDFLEKTSYSYYVPSHGEVTRDIGELVEKNRKAVENIINAVLEITVNPLSTDELMKQLFDRFEITLENLTQYILYRSTVHAYLSFLLDRKEIEREFRNNVLVWRRC | not soluble
MALNVNRAVADPFYRYKMPKLSAKVEGKGNGIKTVISNMSEIAKALERPPMYPTKYFGCELGAQTNFDAKNERYIVNGEHDANKLQDILDGFIKKFVLCKSCENPETQLFVRKNNIKSKCKACGCSFDIDLKHKLSTFIMKNPPKIDVDFSKAEQKNGKKTSGADAAAAVAADIIHNSDKGSSNDDDDDDWEPEPVEPNGMLSAGMGKLVLDKDLEKSEEQRLDMLHTFFLKAKEEDRISDAKGQTALRDEAERLELKQKASLLLANVFLDEKVITDKQISKHRNLLLRFTLNDKKAQRYLLGGVEQVIHKHEAELLSKSAHIIKSLYDEDVCEEDSLISWGEKPSSKYVSKSFAKKIIENSQPVLNWLKEAEEETEEESDDEIAFGGDVKESEFLRQQKEKAAREAQQKSAKATNGNAAAASGANDEEDLDIDDI | soluble
LGQTAYQKDSLARLARRGDELGTLARDFNRMGERLQSLIGSQRQLLRDVSHELRSPLARLRIALALAERAEPEARAQMWPRLEQECDRLEALIGEILALARLDAEPGASQRIALLPLLQRLREDALLLAPEQDIRLEVAPDLSIDGWPDMFERAVDNLLRNAVRFNPVGQPLEVRASSAGDYLRLSVRDHGPGIAAELQEQLGEPFFRAPNQSSPGHGLGLAIARRAIERHGGHLRLGNHPDGGFIATLSLPLRRKAT | not soluble
GMRSNRVTQHPPLQLSLPVHLPDDETFTSYYPAAGNDELIGALKSAASGDGVQAIYLWGPVKSGRTHLIHAACARANELERRSFYIPLGIHASISTALLEGLEQFDLICIDDVDAVAGHPLWEEAIFDLYNRVAEQKRGSLIVSASASPMEAGFVLPDLVSRMHWGLTYQLQPMMDDEKLAALQRRAAMRGLQLPEDVGRFLLNRMARDLRTLFDVLDRLDKASMVHQRKLTIPFVKEMLRL | soluble
PKHGKRYRALLEKVDPNKIYTIDEAAHLVKELATAKFDETVEVHAKLGIDPRRSDQNVRGTVSLPHGGRIEFRNDKTGAIHAPVGKASFPPEKLADNIRAFIRALEAHKPEGAKGTFLRSVYVTTTMGPSVRINPHS | soluble
MAHHHHHHMLKELNLNTTFLRQDYRTPLKQLSVDPIFCRRRGGRAILHFEMNQVQGTVAVTLTGCVAQACVPHACGAGWGNMKVEQLRSFFLSFVVVADAAQPSYFLWGEVSVHEMNGTAGNHLAIDGQSLRTCTTASVIPPLSEIPPEVFIVKAKKFRCQMHEKGFGDSTTCP | not soluble
MTQKIEQSQRQERVAAWNRRTECDLAAFQNSPKQTYQAEKARDRKLCANLEEAIRRSGLQDGMTVSFHHAFRGGDLTVNMVMDVIAKMGFKNLTLASSSLSDCHAPLVEHIRQGVVTRIYTSGLRGPLAEEISRGLLAEPVQIHSHGGRVHLVQSGELNIDVAFLGVPSCDEFGNANGYTGKACCGSLGYAMVDADNAKQVVMLTEELLPYPHNPASIEQDQVDLIVKVNRVGDAAKIGAGTTRMTTNPRELLIARSAADVIVNSGYFKEGFSMQTGTGGASLAVTRFLEDKMRSRDIRADFALGGITATMVDLHEKGLIRKLLDVQSFDSHAAQSLARNPNHIEISANQYANWGSKGASVDRLDVVVLSALEIDRQFNVNVLTGSDGVLRGASGGHCDTAIASALSIIVAPLVRGRIPTLVDNVLTCITPGSSVDILVTDHGIAVNPARPELAERLQEAGIKVVSIEWLRERARLLTGEPQPIEFTDRVVAVVRYRDGSVIDVVHQVKELEHHHHHH | soluble
MEEMGSRSDTIMVASLNRETKEIKLVSVYRDTLLQLSDGTYNKANAAYAYGGEEEAVAMLNKNLDLNIEHYVSVDFSVLVHVIDALGGIDINVEEAENGMDIIPYLNNYVVEVIKNTGVDSAPFTQLGQQHLNGVQATAYARLRYGGGDDYKRTERQRQVLEQIAIKAQKAKLSTINKIIDKVFDNVKTNFTLTETIAYAKDVKSYIFGETQGFPYESTTADLDVGNSVVATDLASDVTKLHQFLFGENDYTPSSTVQSISEDISNSTYDTGESYDTEYDEYGYSQDYSGYDSGYTDNSYGTGGYQDSGYGDGSSGNGYTEDTGGDYVPPSDGGGTDSGSSDSNSQIPDTGTGDSGDTGGESLELEHHHHHH | soluble
